Measurements reported in patent US20040258663A1, “Compositions and methods for enhanced mucosal delivery of interferon alpha” (Nastech Pharmaceutical Company Inc., priority 2003, published 2004).

Legend:
[1] = test system: ciliary function in epithelial cell cultures; details: cited from earlier work
[2] = test system: EpiAirway™ Cell Membrane (mucosal epithelial cell layer)
Description: (§1) The epithelial cells are grown on porous membrane-bottomed cell culture inserts at an air-liquid interface, which results in differentiation of the cells to a highly polarized morphology. […] The inserts have a diameter of 0.875 cm, providing a surface area of 0.6 cm^2.
(§2) A. On arrival, the units are placed onto sterile supports in 6-well microplates. Each well receives 5 mL of proprietary culture medium. This DMEM-based medium is serum free but is supplemented with epidermal growth factor and other factors. The medium is always tested for endogenous levels of any cytokine or growth factor which is being considered for intranasal delivery, but has been free of all cytokines and factors studied to date except insulin. The 5 mL volume is just sufficient to provide contact to the bottoms of the units on their stands, but the apical surface of the epithelium is allowed to remain in direct contact with air. Sterile tweezers are used in this step and in all subsequent steps involving transfer of units to liquid-containing wells to ensure that no air is trapped between the bottoms of the units and the medium.
(§3) B. The units in their plates are maintained at 37° C. in an incubator in an atmosphere of 5% CO2 in air for 24 hours. At the end of this time the medium is replaced with fresh medium and the units are returned to the incubator for another 24 hours.
(§4) A. A “kit” of 24 EpiAirway units can routinely be employed for evaluating five different formulations, each of which is applied to quadruplicate wells. Each well is employed for determination of permeation kinetics (4 time points), transepithelial resistance, mitochondrial reductase activity as measured by MTT reduction, and cytolysis as measured by release of LDH. An additional set of wells is employed as controls, which are sham treated during determination of permeation kinetics, but are otherwise handled identically to the test sample-containing units for determinations of transepithelial resistance and viability.
(§5) B. In all experiments, the mucosal delivery formulation to be studied is applied to the apical surface of each unit in a volume of 100 μL, which is sufficient to cover the entire apical surface. An appropriate volume of the test formulation at the concentration applied to the apical surface (no more than 100 μL is generally needed) is set aside for subsequent determination of concentration of the active material by ELISA or other designated assay.
(§6) D. In order to minimize potential sources of error and avoid any formation of concentration gradients, the units are transferred from one 0.9 mL-containing well to another at each time point in the study. These transfers are made at the following time points, based on a zero time at which the 100 αL volume of test material was applied to the apical surface: 15 minutes, 30 minutes, 60 minutes, and 120 minutes.
(§7) E. In between time points the units in their plates are kept in the 37° C. incubator. Plates containing 0.9 mL medium per well are also maintained in the incubator so that minimal change in temperature occurs during the brief periods when the plates are removed and the units are transferred from one well to another using sterile forceps.

[3] = test system: EpiAirway cell membrane; assay type: cell-based; details: Table 11
Description: While measurement of mitochondrial reductase activity by MTT reduction is a sensitive probe of cell viability, the assay necessarily destroys the cells and therefore can be carried out only at the end of each study. When cells undergo necrotic lysis, their cytotosolic contents are spilled into the surrounding medium, and cytosolic enzymes such as lactic dehydrogenase (LDH) can be detected in this medium. An assay for LDH in the medium can be performed on samples of medium removed at each time point of the two-hour determination of permeation kinetics.
A. The recommended LDH assay for evaluating cytolysis of the EpiAirway units is based on conversion of lactate to pyruvate with generation of NADH from NAD. The NADH is then reoxidized along with simultaneous reduction of the tetrazolium salt INT, catalyzed by a crude “diaphorase” preparation. The formazan formed from reduction of INT is soluble, so that the entire assay for LDH activity can be carried out in a homogenous aqueous medium containing lactate, NAD, diaphorase, and INT.
B. The assay for LDH activity is carried out on 50 μL aliquots from samples of “supernatant” medium surrounding an EpiAirway unit and collected at each time point. These samples were either stored for no longer than 24 h in the refrigerator or were thawed after being frozen within a few hours after collection. Each EpiAirway unit generates samples of supernatant medium collected at 15 min, 30 min, 1 h, and 2 h after application of the test material. The aliquots are all transferred to a 96 well microplate.
C. A 50 μL aliquot of medium which had not been exposed to a unit serves as a “blank” or negative control of 0% cytotoxicity. […] Thus, within experimental error, these sham-treated units show no cytolysis of the epithelial cells over the time course of the permeation kinetics measurements.
D. To prepare a sample of supernatant medium reflecting the level of LDH released after 100% of the cells in a unit have lysed, a unit which had not been subjected to any prior manipulations is added to a well of a 6-well microplate containing 0.9 mL of medium as in the protocol for determination of permeation kinetics, the plate containing the unit is frozen at −80° C., and the contents of the well are then allowed to thaw. This freeze-thaw cycle effectively lyses the cells and releases their cytosolic contents, including LDH, into the supernatant medium. A 50 μL aliquot of the medium from the frozen and thawed cells is added to the 96-well plate as a positive control reflecting 100% cytotoxicity.
E. To each well containing an aliquot of supernatant medium, a 50 μL aliquot of the LDH assay reagent is added. The plate is then incubated for 30 minutes in the dark.
F. The reactions are terminated by addition of a “stop” solution of 1 M acetic acid, and within one hour of addition of the stop solution, the absorbance of the plate is determined at 490 nm.
G. Computation of percent cytolysis is based on the assumption of a linear relationship between absorbance and cytolysis, with the absorbance obtained from the medium alone serving as a reference for 0% cytolysis and the absorbance obtained from the medium surrounding a frozen and thawed unit serving as a reference for 100% cytolysis.

[4] = Bioavailability of nasal interferon-α in healthy male volunteers versus subcutaneous administration; assay type: in vivo, human; details: for Cmax: 3 MIU, SC, human plasma
Description: The present example provides a non-blinded study to determine the uptake of intranasally administered interferon-α in combination with one or more intranasal delivery-enhancing agents into the blood serum in healthy male volunteers.
Twelve healthy male subjects are enrolled in the step and each receives all 3 test product in a cross over fashion.
Each receive all 3 test products.
The protocol involved three doses of the same test product in a dose escalation manner.
The absorption and tolerance results of all products tested were tabulated and analyzed for Cmax, Tmax, and bioavailability (Area under concentration curve, AUC).
For nasal and injectable preparations in Protocols 1 and 2, 7 mL blood samples were drawn at 0 (prior to dose), 10, 20, 30, 45, 60, 75, 90, 120, 180, 240, 360, and 480 minutes post dosing into appropriate vacutainers.
The blood samples were centrifuged and the serum assayed for drug concentration using ELISA Method.
This is a single dose, parallel group study to evaluate absorption, tolerance and pharmacodynamic parameters of Interferon-α-2b by two routes of administration: subcutaneous and intranasally. The study involves twelve healthy male subjects randomly assigned six per group (6 subjects subcutaneous and 6 intranasal). The objective of the study is to evaluate the absorption, tolerance and pharmacodynamic parameters of intranasal administration of Interferon-α-2b by formulations of the present invention versus subcutaneous administration of interferon-α-2b (IntronA®, Schering, Corp.).
When receiving the intranasal dosage formulations, the subjects were seated and instructed to gently blow their nose before dosing. During dosing, the other nostril must be closed with the forefinger. They were also instructed to tilt their heads slightly back for dosing and to return their heads to an upright position while sniffing in gently immediately following dosing. Subjects must avoid additional sniffing and must remain in a seated position with head upright for 5 minutes after dosing. […]
Serum drug concentrations were measured using a suitable analytical method. […]

[5] = test system: EpiAirway™ Cell Membrane (mucosal epithelial cell layer); assay: Permeation kinetics of interferon-α-2b measured by ELISA assay; details: Table 9
Description: as §1, §2, §3, §4, §5, §6, §7

For “2-alkyl-4-hydroxyquinolines [pyo compound]”, the “concentration producing ciliostasis / inhibiting ciliary motility” value [1] is given as 50 µg/mL.
With interferon α-2b [Intron A] the “Fold Increase” value [2] was 1 fold, the “% Dead Cells at Time-Intervals (min), 0” value ([3]; 0 min) was 0% and the “% Dead Cells at Time-Intervals (min), 15” value ([3]; 15 min) was 0.84%. For the same substance, the “% Dead Cells at Time-Intervals (min), 30” value ([3]; 30 min) was 0.93%, the “% Dead Cells at Time-Intervals (min), 60” value ([3]; 60 min) was 1.65% and the “% Dead Cells at Time-Intervals (min), 120” value ([3]; 120 min) was 4.27%. For the same substance, the Cmax ([4]; 0 to 3 hour) was 4.0 IU/mL, the Cmax ([4]; 0 to 4 hour) was 6.8 IU/mL and the “maximum concentration of interferon-α in the blood serum (Cmax)” value ([4]; subcutaneous, 3 MIU dose, at 3 hours post dosing) was 4.0 IU/mL. The “% Permeated at Time-intervals (min), 0 min” value ([5]; 0 min) was 0%, the “% Permeated at Time-intervals (min), 15 min” value ([5]; 15 min) was 0.000% and the “% Permeated at Time-intervals (min), 30 min” value ([5]; 30 min) was 0.003%. The “% Permeated at Time-intervals (min), 60 min” value ([5]; 60 min) was 0.011% and the “% Permeated at Time-intervals (min), 120 min” value ([5]; 120 min) was 0.022%.
